Target: TH-A/New Caledonia/20/1999_2GCN_dn5b (203L/210D/212V/216I) (influenza A virus A/New …)
Experiment: in vitro nanoparticle assembly, purified nanoparticles seen by cryo-EM

B1: I53_dn5A.1 (other)
chain: MGKYDGSKLRIGILHARGNAEIILALVLGALKRLQEFGVKRENIIIETVPGSFELPYGSKLFVEKQKRLGKPLDAIIPIGVLIRGSTPHFDYIADSTTHQLMKLNFELGIPVIFGVITADTDEQAEARAGLIEGKMHNHGEDWGAAAVEMATKFN
binding result: binds

Source: US20250127877A1 (University of Washington, published 2025)
